The source of these data is US20220031857A1.

Experiment [1] deals with recombinant mouse TfR1 (transferrin receptor 1) (mouse) (UniProt Q62351). As to the kind of experiment: Octet, mouse TfR1 on anti-His biosensors, analyte 10 nM, PBS pH 7.2. Background: Biolayer interferometry detects binding as a change in optical thickness at a sensor tip.
Experiment [2] shares this target. As to the kind of experiment: Octet, mouse TfR1 on anti-His biosensors, analyte 10 nM, PBS pH 6.0.
The target is the same in experiment [3]. As to the kind of experiment: Octet, mouse TfR1 immobilised on biosensors; row buffer (no first antibody), column 8D3.

Chain of recombinant mouse TfR1 (transferrin receptor 1) (mouse) (Q62351 89-763 limits assumed): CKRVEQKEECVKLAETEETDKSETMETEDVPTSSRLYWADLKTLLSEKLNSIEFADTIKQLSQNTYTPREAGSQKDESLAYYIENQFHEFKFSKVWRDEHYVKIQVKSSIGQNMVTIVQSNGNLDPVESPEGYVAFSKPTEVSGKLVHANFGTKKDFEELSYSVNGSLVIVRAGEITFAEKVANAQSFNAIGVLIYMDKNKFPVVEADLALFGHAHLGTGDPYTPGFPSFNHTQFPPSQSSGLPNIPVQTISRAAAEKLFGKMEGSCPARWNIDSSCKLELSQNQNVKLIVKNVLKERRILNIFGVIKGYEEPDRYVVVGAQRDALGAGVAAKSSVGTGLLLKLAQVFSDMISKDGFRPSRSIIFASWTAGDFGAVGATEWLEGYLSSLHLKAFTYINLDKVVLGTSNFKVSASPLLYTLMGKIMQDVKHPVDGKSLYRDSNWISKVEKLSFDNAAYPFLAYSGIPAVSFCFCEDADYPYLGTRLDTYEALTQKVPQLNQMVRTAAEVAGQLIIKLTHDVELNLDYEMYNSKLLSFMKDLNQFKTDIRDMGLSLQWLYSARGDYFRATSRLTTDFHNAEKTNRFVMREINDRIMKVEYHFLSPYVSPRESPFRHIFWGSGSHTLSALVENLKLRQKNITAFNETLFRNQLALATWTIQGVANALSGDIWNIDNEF

B1: 8D3 monoclonal antibody to mouse TfR (antibody, from another filing, V domains shown)
VH: EVQLVESGGGLVQPGNSLTLSCVASGFTFSNYGMHWIRQAPKKGLEWIAMIYYDSSKMNYADTVKGRFTISRDNSKNTLYLEMNSLRSEDTAMYYCAVPTSHYVVDVWGQGVSVTVSS
VL: DIQMTQSPASLSASLEEIVTITCQASQDIGNWLAWYQQKPGKSPQLLIYGATSLADGVPSRFSGSRSGTQFSLKISRVQVEDIGIYYCLQAYNTPWTFGGGTKLELK
As a reminder, the Kd is the equilibrium constant for the complex coming apart. What is called koff is the rate constant with which the complex falls apart. What is called kon is the second-order rate constant of association. Take B1: in experiment [1], the Kd stood at 221 pM, the off-rate constant (koff) came to 0.000131 s⁻¹ and the kon turned out to be 591000 M⁻¹ s⁻¹. For the same molecule, in experiment [2], the Kd was 247 pM, the koff was 0.000126 s⁻¹ and the kon amounted to 511000 M⁻¹ s⁻¹. For the same molecule, in experiment [3], the Octet signal as second antibody after buffer came out at 0.33.
